The record followed here is PMC3708871.

The labels stand for the following.
T1: Recombinant SIVmac239 Nef core domain, residues 96–237
T1 chain: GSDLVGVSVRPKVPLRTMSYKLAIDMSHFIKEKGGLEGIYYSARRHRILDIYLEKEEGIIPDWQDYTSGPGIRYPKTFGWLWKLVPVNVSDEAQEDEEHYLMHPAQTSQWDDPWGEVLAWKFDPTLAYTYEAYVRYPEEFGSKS

One test deals with T1, Recombinant SIVmac239 Nef core domain, …. Nature of the test: SPR. The note with it: chain shown with the change; Nef96–237 at about 650 µM (highest concentration point), peptide on chip; parent: est. 1900; read off a plot.
Turning to MAPILYDYRKMPMAAAAAEDGDKRCK, the response was 1100 RU.

Staying with this test, now noted: chain shown with the change; Nef96–237 at about 650 µM (highest concentration point), peptide on chip; read off a plot.
Take MASTSYDYSRVPMDDIWKEDGDKRCK: the response was determined as 800 RU.

In a further test the target is Rhesus macaque tetherin (BST-2), allele rBST-2.1. As to the kind of experiment: co-immunoprecipitation. The following applies: 293T cells co-transfected; lysates immunoprecipitated with a monoclonal antibody to tetherin; parent: 1.
For “SIVmac239 Nef, wild type M66A; N67A; T68A; P69A; W70A; R71A”, the ratio to parent was found to be 0.05.

Regarding “SIVmac239 Nef, wild type M66A; N67A; T68A; P69A; W70A; R71A; I117A; L174A; W175A; N181A; V182A”, the ratio to parent came out at 0.07.

A further test concerns the target SIVmac239 Nef, wild type. As to the kind of experiment: co-immunoprecipitation. The note with it: IP: α-BST2; parent: 0.13.
As for “Human tetherin (BST-2) (from UniProt Q10589) insertion of D14DIWK18 from rhesus tetherin into human tetherin (hDDIWK)”, the other: Nef/BST2 band intensity ratio was determined as 0.65.

In a further test the target is Peptide of the cytoplasmic domain of rhesus macaque tetherin, residues 1–26, biotinylated (rhesus macaque). Nature of the test: SPR; BIAcore 3000, 25°C, PBS with 5 mM DTT; biotinylated tetherin peptides captured (3,000 RU) on neutravidin-coated CM5 chip, Nef proteins flowed at 5 µl/min; equilibrium analysis, apparent Kd.
Conditions: not given
Background: In SPR one partner is held on a chip, and binding of the other changes the refractive index at the surface.
Consider “Recombinant SIVmac239 Nef core domain, residues 96–237 (domain or fragment)”, for which the Kd is 401 µM.

The next test deals with Rhesus macaque tetherin (BST-2), allele rBST-2.1 (rhesus macaque). Nature of the test: co-IP; 293T co-transfected with Nef and tetherin constructs; lysates immunoprecipitated with anti-tetherin mAb 3H4 and protein A beads, blots for Nef and tetherin; band densities by ImageJ.
Conditions: not given
For “SIVmac239 Nef with pair-wise alanine substitutions at positions 181–182 (natural protein)”, the BST2 binding (Nef/tetherin band intensity in IP) came to 0.23.

Molecule “SIVmac239 Nef with pair-wise alanine substitutions at positions 86–87 (natural protein)” showed a BST2 binding (Nef/tetherin band intensity in IP) of 0.47.

The molecule “SIVmac239 Nef with pair-wise alanine substitutions at positions 74–75 (natural protein)” gave a BST2 binding (Nef/tetherin band intensity in IP) of 0.71.

On to “SIVmac239 Nef with pair-wise alanine substitutions at positions 64–65 (natural protein)”, for which the BST2 binding (Nef/tetherin band intensity in IP) was determined as 0.54.

In the case of “SIVmac239 Nef with pair-wise alanine substitutions at positions 112–113 (natural protein)”, the BST2 binding (Nef/tetherin band intensity in IP) amounted to 0.35.

Molecule “SIVmac239 Nef with pair-wise alanine substitutions at positions 164–165 (natural protein)” gave a BST2 binding (Nef/tetherin band intensity in IP) of 1.34.

The molecule “SIVmac239 Nef with pair-wise alanine substitutions at positions 166–167 (natural protein)” showed a BST2 binding (Nef/tetherin band intensity in IP) of 1.4.

For “SIVmac239 Nef with pair-wise alanine substitutions at positions 142–143 (natural protein)”, the BST2 binding (Nef/tetherin band intensity in IP) amounted to 5.1.

“SIVmac239 Nef with pair-wise alanine substitutions at positions 193–194 (natural protein)” came in with a BST2 binding (Nef/tetherin band intensity in IP) of 0.22.

Molecule “SIVmac239 Nef with pair-wise alanine substitutions at positions 152–153 (natural protein)” gave a BST2 binding (Nef/tetherin band intensity in IP) of 1.68.

On to “SIVmac239 Nef with pair-wise alanine substitutions at positions 209–210 (natural protein)”, for which the BST2 binding (Nef/tetherin band intensity in IP) came to 1.4.

“SIVmac239 Nef with pair-wise alanine substitutions at positions 138–139 (natural protein)” gave a BST2 binding (Nef/tetherin band intensity in IP) of 0.84.

The molecule “SIVmac239 Nef with pair-wise alanine substitutions at positions 160–161 (natural protein)” displayed a BST2 binding (Nef/tetherin band intensity in IP) of 1.64.

On to “SIVmac239 Nef with pair-wise alanine substitutions at positions 170–171 (natural protein)”, for which the BST2 binding (Nef/tetherin band intensity in IP) turned out to be 2.61.

Consider “SIVmac239 Nef with pair-wise alanine substitutions at positions 108–109 (natural protein)”, for which the BST2 binding (Nef/tetherin band intensity in IP) turned out to be 1.87.

“SIVmac239 Nef with pair-wise alanine substitutions at positions 70–71 (natural protein)” returned a BST2 binding (Nef/tetherin band intensity in IP) of 0.28.

“SIVmac239 Nef with pair-wise alanine substitutions at positions 203–204 (natural protein)” came in with a BST2 binding (Nef/tetherin band intensity in IP) of 0.74.

In turn, “SIVmac239 Nef, wild type (natural protein)” registered a BST2 binding (Nef/tetherin band intensity in IP) of 1.

Turning to “SIVmac239 Nef with pair-wise alanine substitutions at positions 195–196 (natural protein)”, the BST2 binding (Nef/tetherin band intensity in IP) is 0.31.

The molecule “SIVmac239 Nef with pair-wise alanine substitutions at positions 130–131 (natural protein)” gave a BST2 binding (Nef/tetherin band intensity in IP) of 2.4.

For the molecule “SIVmac239 Nef with pair-wise alanine substitutions at positions 168–169 (natural protein)”, the BST2 binding (Nef/tetherin band intensity in IP) was 2.1.

“SIVmac239 Nef with pair-wise alanine substitutions at positions 205–206 (natural protein)” gave a BST2 binding (Nef/tetherin band intensity in IP) of 0.94.

“SIVmac239 Nef with pair-wise alanine substitutions at positions 174–175 (natural protein)” had a BST2 binding (Nef/tetherin band intensity in IP) of 0.52.

In turn, “SIVmac239 Nef with pair-wise alanine substitutions at positions 5–6 (natural protein)” registered a BST2 binding (Nef/tetherin band intensity in IP) of 0.18.

Take “SIVmac239 Nef with pair-wise alanine substitutions at positions 68–69 (natural protein)”: the BST2 binding (Nef/tetherin band intensity in IP) turned out to be 0.14.

Take “SIVmac239 Nef with pair-wise alanine substitutions at positions 134–135 (natural protein)”: the BST2 binding (Nef/tetherin band intensity in IP) was determined as 2.58.

Molecule “SIVmac239 Nef with pair-wise alanine substitutions at positions 172–173 (natural protein)” gave a BST2 binding (Nef/tetherin band intensity in IP) of 1.34.

Molecule “SIVmac239 Nef with pair-wise alanine substitutions at positions 199–200 (natural protein)” came in with a BST2 binding (Nef/tetherin band intensity in IP) of 0.43.

In turn, “SIVmac239 Nef with pair-wise alanine substitutions at positions 82–83 (natural protein)” had a BST2 binding (Nef/tetherin band intensity in IP) of 1.38.

With “SIVmac239 Nef with pair-wise alanine substitutions at positions 146–147 (natural protein)”, the BST2 binding (Nef/tetherin band intensity in IP) was determined as 1.56.

The molecule “SIVmac239 Nef with pair-wise alanine substitutions at positions 176–177 (natural protein)” registered a BST2 binding (Nef/tetherin band intensity in IP) of 3.17.

In turn, “SIVmac239 Nef with pair-wise alanine substitutions at positions 110–111 (natural protein)” had a BST2 binding (Nef/tetherin band intensity in IP) of 1.29.

“SIVmac239 Nef with pair-wise alanine substitutions at positions 132–133 (natural protein)” came in with a BST2 binding (Nef/tetherin band intensity in IP) of 0.79.

For “SIVmac239 Nef with pair-wise alanine substitutions at positions 156–157 (natural protein)”, the BST2 binding (Nef/tetherin band intensity in IP) amounted to 1.46.

Turning to “SIVmac239 Nef with pair-wise alanine substitutions at positions 88–89 (natural protein)”, the BST2 binding (Nef/tetherin band intensity in IP) turned out to be 0.93.

For “SIVmac239 Nef with pair-wise alanine substitutions at positions 106–107 (natural protein)”, the BST2 binding (Nef/tetherin band intensity in IP) was found to be 0.82.

Consider “SIVmac239 Nef with pair-wise alanine substitutions at positions 140–141 (natural protein)”, for which the BST2 binding (Nef/tetherin band intensity in IP) was 1.38.

Turning to “SIVmac239 Nef with pair-wise alanine substitutions at positions 158–159 (natural protein)”, the BST2 binding (Nef/tetherin band intensity in IP) turned out to be 0.76.

With “SIVmac239 Nef with pair-wise alanine substitutions at positions 66–67 (natural protein)”, the BST2 binding (Nef/tetherin band intensity in IP) was 0.18.

“SIVmac239 Nef with pair-wise alanine substitutions at positions 60–61 (natural protein)” displayed a BST2 binding (Nef/tetherin band intensity in IP) of 0.7.

Turning to “SIVmac239 Nef with pair-wise alanine substitutions at positions 128–129 (natural protein)”, the BST2 binding (Nef/tetherin band intensity in IP) is 1.11.

With “SIVmac239 Nef G2A (myristoylation site mutant) (natural protein)”, the BST2 binding (Nef/tetherin band intensity in IP) stood at 0.16.

As for “SIVmac239 Nef with pair-wise alanine substitutions at positions 116–117 (natural protein)”, the BST2 binding (Nef/tetherin band intensity in IP) was 0.16.

The target of another test is Dynamin 2 fused to GFP (UniProt P50570). Nature of the test: co-IP; 293T co-transfected with Nef constructs and Dyn2-GFP; lysates immunoprecipitated with a mAb to GFP, blots for Nef and GFP; band ratios.
UniProt P50570, sequence (P50570 whole entry, the tested form may be a part): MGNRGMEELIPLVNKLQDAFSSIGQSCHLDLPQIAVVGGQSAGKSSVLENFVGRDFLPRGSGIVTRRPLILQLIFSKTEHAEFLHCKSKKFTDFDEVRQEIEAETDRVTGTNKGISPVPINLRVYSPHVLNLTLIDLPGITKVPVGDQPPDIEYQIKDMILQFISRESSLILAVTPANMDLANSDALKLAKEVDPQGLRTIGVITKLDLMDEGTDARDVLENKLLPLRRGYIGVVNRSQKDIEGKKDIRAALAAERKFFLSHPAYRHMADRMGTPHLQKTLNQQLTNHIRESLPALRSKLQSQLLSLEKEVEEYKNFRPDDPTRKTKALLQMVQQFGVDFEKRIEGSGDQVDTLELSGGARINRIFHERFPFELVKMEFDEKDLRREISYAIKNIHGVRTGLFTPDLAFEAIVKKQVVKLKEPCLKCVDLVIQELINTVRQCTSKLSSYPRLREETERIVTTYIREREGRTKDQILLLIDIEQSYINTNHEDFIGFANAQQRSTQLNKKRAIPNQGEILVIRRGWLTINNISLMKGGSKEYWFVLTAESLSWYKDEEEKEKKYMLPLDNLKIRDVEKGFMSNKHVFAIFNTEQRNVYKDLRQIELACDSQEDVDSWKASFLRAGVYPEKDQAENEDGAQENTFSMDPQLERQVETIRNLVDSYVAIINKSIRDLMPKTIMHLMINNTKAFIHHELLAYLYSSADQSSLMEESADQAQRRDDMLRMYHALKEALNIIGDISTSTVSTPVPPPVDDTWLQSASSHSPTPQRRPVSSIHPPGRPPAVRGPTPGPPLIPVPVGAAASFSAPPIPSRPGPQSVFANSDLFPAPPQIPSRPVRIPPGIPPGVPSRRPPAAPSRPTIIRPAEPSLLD
Conditions: not given
Consider “SIVmac239 Nef, wild type (natural protein)”, for which the Dyn2 binding (Nef/dynamin 2 band intensity in IP) turned out to be 1.1.
